Substitutions are numbered along the chain they refer to. Numbers in names are those of the source.
B1: synaptotagmin-1 C2AB fragment (residues 140-421), wild type (domain or fragment)
chain: EKLGKLQYSLDYDFQNNQLLVGIIQAAELPALDMGGTSDPYVKVFLLPDKKKKFETKVHRKTLNPVFNEQFTFKVPYSELGGKTLVMAVYDFDRFSKHDIIGEFKVPMNTVDFGHVTEEWRDLQSAEKEEQEKLGDICFSLRYVPTAGKLTVVILEAKNLKKMDVGGLSDPYVKIHLMQNGKRLKKKKTTIKKNTLNPYYNESFSFEVPFEQIQKVQVVVTVLDYDKIGKNDAIGKVFVGYNSTGAELRHWSDMLANPRRPIAQWHTLQVEEEVDAMLAVKK
B2: synaptotagmin-1 C2AB fragment (residues 140-421) R398Q,R399Q mutant (domain or fragment)
chain: B1 chain with R259Q, R260Q

Target: SNARE complex reconstituted and anchored on supported phospholipid bilayers (rat | human, UniProt P32851;P60880-2;P63045)

| Binder | EC50 |
| --- | --- |
| B1 | 12 nM |
| B2 | 12 nM |
